{"source": "paper PMC11480323", "biological_target": "Cas7 of the type I-F Cas8-HNH system from Selenomonas sp. isolate RGIG9219 (Selenomonas sp. isolate RGIG9219)", "assay": "cryo-EM structure; Cas8-HNH Cascade-crRNA ribonucleoprotein complex in the target-free state, 3.6 Å; subunits co-expressed in E. coli with crRNA and purified as one complex", "data": [{"substance": "Cas7 of the type I-F Cas8-HNH system from Selenomonas sp. isolate RGIG9219 (natural protein)", "values": [{"measurement": "stoichiometry N", "result": 6}]}]}
